B1: PA430 human IgG (antibody, V domains shown)
VH: QMQLVESGGGVVQPGKSLRLSCAASGFTFSYHAMHWVRQAPGKGLEWLAAMSHDGTETSYADSVKGRITISRDNSKSALYLQMNSLRAEDTAVYYCTAEGLRSNGGAFETWGRGTMITVSS
VL: SYELTQPPSVSVAPGQTARITCSGDVLPKHYAYWYQQKPGQAPVLVIYKDSERPSGIPERFTGSSSGTKVTLTISGVRAEDEADYYCQSVDSSDTSVVFGGGTKLTVLG
notes: Converted from the phage antibody to whole human IgG with vectors pIgGHD-6A6Hvy and pIgGLD-6A6Lgt and expressed in HEK293T
B2: PD52 human IgG (antibody, V domains shown)
VH: QMQLVQSGGGVVQPGGSLRLSCVGSGFSFDDYAMHWVRQAPGKGLEWVSGISWNSGAIGYADSVKGRFTVSRDNSKNSLYLQMNSLRAEDTAVYYCATASRGLGDAFDIWGQGTMVTVSS
VL: SYELTQPPSVSVSPGQTARITCSGDVLPKHYAYWYQQKPGQAPVLVIYKDTERPSGIPERFSGSSSGTTVTLTISGVQAEDEADYYCQSVDNSDTSVVFGGGTKLTVLG
notes: Whole human IgG
B3: PD10 human IgG (antibody, V domains shown)
VH: QVQLVESGGGLVQPGGSLRLSCAASGFTFDEHAMHWVRQAPGKGLQWVSGINWNSGKTGYADSVKGRFTISRDNSKNSLYLQMNSLRAEDTAVYYCTRPGEDTGGGFDIWGQGTMITVSS
VL: NFMLTQPASVSGSPGQSITISCTGSSSDVGGYNYVSWYQQHPGKAPQLIIYDVTKRPSGVSNRFSGSKSGNSASLTISGLQAEDEADYYCSSYSSSTFYVFGTGTKVTVLG
notes: Whole human IgG
B4: PD27 human IgG (antibody, V domains shown)
VH: QVQLVESGGGLVQPGGSLRLSCAASGFTFDEHAMHWVRQAPGKGLQWVSGINWNSGKTGYADSVKGRFTISRDNSKNSLYLQMNSLRAEDTAVYYCTRPGEDTGGGFDIWGQGTMITVSS
VL: SYELTQPLSVSVSPGQTARITCSGDVLADHYSYWYQQKPGQAPVLVMYKDSERPSGIPERFSGSSSGTTVTLTISGVQAEDEADYYCQSVDSSDTSVVFGGGTKLTVLG
notes: Whole human IgG

What follows are binders tested against BSA (UniProt P02769 25-607) (assay: ELISA, coated BSA, anti-human IgG HRP).
Sequence of BSA (P02769 25-607 limits assumed): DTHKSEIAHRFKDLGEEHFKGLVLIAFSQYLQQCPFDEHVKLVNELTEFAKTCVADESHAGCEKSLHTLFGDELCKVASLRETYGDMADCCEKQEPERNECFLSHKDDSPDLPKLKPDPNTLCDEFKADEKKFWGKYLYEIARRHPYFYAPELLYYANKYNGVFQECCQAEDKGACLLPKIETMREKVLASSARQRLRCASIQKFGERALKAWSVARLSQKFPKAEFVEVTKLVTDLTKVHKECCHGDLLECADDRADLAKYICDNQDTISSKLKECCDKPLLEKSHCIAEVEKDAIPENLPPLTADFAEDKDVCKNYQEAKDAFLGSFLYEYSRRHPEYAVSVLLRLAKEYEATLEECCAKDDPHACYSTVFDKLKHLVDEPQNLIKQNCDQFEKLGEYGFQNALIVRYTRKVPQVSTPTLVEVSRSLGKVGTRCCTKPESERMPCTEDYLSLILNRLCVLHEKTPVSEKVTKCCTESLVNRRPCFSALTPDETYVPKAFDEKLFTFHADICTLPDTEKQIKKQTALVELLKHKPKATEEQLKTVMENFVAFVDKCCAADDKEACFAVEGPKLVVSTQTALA
Method: ELISAs were performed to identify antigen-specific binding capacity of clones converted to IgG EGFRvIII peptide, […] peptide and BSA were coated on […] 96 well plates at 37° C. for 2 hours. Thereafter, after blocking the uncoated portion with 3% skim milk/0.05% PBST, 1 μg/ml IgG was added to the plate and reacted at 37° C. for 1 hour. Anti-human IgG HRP (pierce, USA) was diluted in 1:3000 and reacted for 1 hour. Next, the TMB substrate (BD, USA) was treated for 10 minutes for color development, and the reaction was stopped by treating with 2N H2SO4. As to the color developed ELISA, the absorbance was measured at 450 nm-650 nm using a Sunrise ELISA reader (TECAN, Switzerland).
B1: no binding (tested: 1 µg/ml IgG).
B2: no binding (tested: 1 µg/ml IgG).
B3: no binding (tested: 1 µg/ml IgG).
B4: no binding (tested: 1 µg/ml IgG).

From patent US20170327585A1 (PHARMABCINE, published 2017)
